{"source": "patent US7074765B2", "about": "“Synthetic peptide analogs of Arg-Pro-Pro-Gly-Phe as selective inhibitors of thrombin and thrombin activation of protease activated receptors 1 and 4” (The Regents of the University of Michigan, priority 2003, dated 2006)", "key": {"[1]": {"target": "T1, recombinant protease activated receptor 1 extracellular domain (rPAR1EC) (Homo sapiens, UniProt P25116)", "T1 construct": "A portion of the extracellular domain of human PAR1 (Ala^26-Ser^99) (rPAR1EC) was expressed in Escherichia coli; His10-DDDDK (pET19b) (N); made in house; host or cells: E. coli BL21(DE3), pET19b", "T1 sequence (P25116 26-99)": "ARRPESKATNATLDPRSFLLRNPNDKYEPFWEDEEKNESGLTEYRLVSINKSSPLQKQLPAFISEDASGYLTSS", "assay": "Inhibition of RPPGF-biotin binding to rPAR1EC", "details": "5 mM peptide, 50 μM RPPGF-biotin (FIG. 7); listed in decreasing order"}, "[2]": {"target": "T2, thrombocytin cleavage of recombinant human PAR1 extracellular domain (Homo sapiens, UniProt P25116)", "T2 construct": "A portion of the extracellular domain of human PAR1 (Ala^26-Ser^99) (rPAR1EC) was expressed in Escherichia coli; His10-DDDDK (pET19b) (N); made in house; host or cells: E. coli BL21(DE3), pET19b (rPAR1EC)", "T2 sequence (P25116 26-99)": "T1 sequence (P25116 26-99)", "assay": "Inhibition of thrombocytin-induced cleavage of rPAR1EC", "assay_type": "biochemical", "details": "16.7 nM thrombocytin, 45 min, 37° C.; below concentration that blocks the enzyme's proteolytic activity", "experimental": "(§1) Thrombocytin is a snake venom enzyme that activates platelets by cleaving PAR1 at the thrombin cleavage site (Santos et al., FEBS Letters. 18, 3570–3577 (2000)). […] The ability of MAP4-rOicPGF to block thrombocytin cleavage of rPAR1EC was performed as follows. One μg of rPAR1EC in 0.01 mM Tris-HCL, 0.2 M NaCl, pH 8.0 was incubated at 37° C. for 15 min or 45 min with 1 nM of α-thrombin or 0.5 μg/mL thrombocytin (16.7 nM), respectively, in the absence or presence of 0.025 to 1 mM MAP4-rOicPGF. The reaction mixture was separated on SDS-PAGE and stained with Coomassie Brilliant Blue. The cleaved gel images were scanned using the software Scion Image, ScionCorp, Frederick, Md."}, "[3]": {"target": "T3, α-thrombin cleavage of recombinant extracellular fragment of human PAR1 (rPAR1EC) (Homo sapiens, UniProt P00734)", "T3 construct": "A portion of the extracellular domain of human PAR1 (Ala^26-Ser^99) (rPAR1EC) was expressed in Escherichia coli; with 1 nM of α-thrombin or 0.5 μg/mL thrombocytin (16.7 nM); His10-DDDDK (pET19b) (N); made in house; host or cells: E. coli BL21(DE3), pET19b (rPAR1EC)", "assay": "Inhibition of α-thrombin-induced cleavage of rPAR1EC", "assay_type": "biochemical", "experimental": "as §1"}, "thrombin": {"target": "thrombin (Homo sapiens, UniProt P00734)", "details": "read-out: Ki (retrobinders to the active site of thrombin); cited from earlier work"}, "cyclic flow variations": {"system": "cyclic flow variations", "details": "Folt's model, canine; similar degree as aspirin or clopidogrel; cited from earlier work"}, "mouse carotid artery": {"system": "mouse carotid artery", "details": "cited from earlier work"}, "mouse platelets": {"system": "mouse platelets", "details": "cited from earlier work"}, "[4]": {"system": "normal human lung fibroblasts (NHLF)", "assay": "α-thrombin-induced calcium mobilization in fibroblasts", "assay_type": "cell-based", "details": "0.1 mM peptide; α-thrombin-induced calcium mobilization in fibroblasts", "experimental": "The second assay developed to assess peptides from the combinatorial libraries uses inhibition of α-thrombin-induced calcium mobilization in fibroblasts. Normal human lung fibroblasts (NHLF) were purchased from Clonetics, San Diego, Calif., an affiliate of Bio-Wittaker, Walkersville, Md. The cytoplasmic free Ca^2+ concentration ([Ca^2+]i) was measured using the fluorescent Ca^2+ indicator fura-2 (Molecular Probes, Inc., Eugene, Oreg.). Suspension of fibroblasts in Hepes-Tyrode's buffer were loaded with fura-2 by incubation at 37° C. with 2 μM fura-2/acetoxymethyl ester for 45 minutes according to the method of Rasmussen et al., J. Biol. Chem. 268, 14322 (1993). The labeled fibroblasts were separated from excess probe by washing by centrifugation at 1000 rpm (180×g). Aliquots of the labeled fibroblasts were transferred into a quartz cuvette with a magnetic stirrer, which was then placed in a thermostatically controlled chamber at 37° C. in a fluorescence spectrophotometer (Perkin-Elmer LS50B spectrofluorometer, Chicago, Ill.). Reagents, test peptide, and α-thrombin (0.25–2 nM), were sequentially added directly to the cuvette. The excitation wavelengths varied between 340 and 380 nm. Fluorescence was measured by recording emitted light at 510 nm as reported by Fisher et al., Mol Pharm. 35, 195 (1989). The minimum emission was determined on a solubilized fibroblast sample in the presence of 10 mM EDTA; maximum emission was determined on the same sample with 10 mM Ca^2+ added. The intrafibroblast free Ca^2+ concentration was calculated by the method of Grykiewicz et al., J. Biol. Chem. 260, 3440 (1985). […] The KD for fura-2 was assumed to be 224 nM. Rmax and Rmin are the maximum and minimum fluorescence ratios measured at the end of the experiment, respectively; Sf2 and Sb2 are the fluorescence values at 380 nm in the absence and presence of saturating [Ca^2+], respectively. The reaction was monitored for 3–5 minutes."}, "[5]": {"target": "T4, SILPAPRGYPGQ, thrombin binding and cleaving region on human PAR4 (Homo sapiens, UniProt Q96RI0)", "T4 construct": "host or cells: synthetic peptide", "assay": "Inhibition of SILPAPRGYPGQ-biotin binding to RPPGC", "details": "10 micromolar biotinylated-SIL12; 0.001 to 5 mM peptide", "experimental": "Investigations were performed to determine if the compounds in the present invention interact with human PAR4. In FIG. 11, RPPGC (SEQ ID NO:10) was bound to plastic microtiter plates, After washing, biotinylated-[…] (SEQ ID NO:14) was incubated with the cuvette wells in the absence or presence of 0.001 to 5 mM RPPGF (SEQ ID NO:4), TH146, TH26, SIL12 (SEQ ID NO:9), or a scrambled peptide of RPPGF, FPRPG (Phe-Pro-Arg-Pro-Gly, SEQ ID NO:21). Peptide […]"}, "[6]": {"target": "T5, recombinant extracellular fragment of human protease activated receptor 4 (rPAR4EC) (Homo sapiens, UniProt Q96RI0)", "T5 construct": "starting with Gly^18, the first amino acid after the signal peptide is removed, and finishing with Arg^78; made in house; host or cells: E. coli BL21, pET19b-PAR4", "T5 sequence (Q96RI0 18-78)": "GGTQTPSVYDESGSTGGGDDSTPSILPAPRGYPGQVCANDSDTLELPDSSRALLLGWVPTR", "assay": "Inhibition of RPPGF-biotin binding to rPAR4EC", "details": "5 mM peptide; 50 μM RPPGF-biotin", "source_text": "The extracellular fragment of human PAR4 has been expressed in bacteria. Human erythroleukemia (HEL) cells were used as a source for PAR4 mRNA. The level of PAR4 mRNA was substantially higher in HEL cells than washed human platelets. […] These primers give a 204 basepair fragment which code for a 61 amino acid hPAR4 protein starting with Gly^18, the first amino acid after the signal peptide is removed, and finishing with Arg^78, the last amino acid of the extracellular fragment (Xu et al. Proc. Natl. Acad. Sci. 95, 6642–6646 (1998)). The pET19b-PAR4 vector after cloning was used to transform BL21 cells to express the recombinant protein. The expressed recombinant protein was purified on a DEAE Sephadex followed by a nickel affinity column (the recombinant protein has a 10 His-tag on its amino terminal end). The isolated, recombinant extracellular domain of PAR4 (rPAREC) is about 15 kDa on 16.5% Tris-Tricine SDS-PAGE. The recombinant protein is recognized as being human PAR4 by detection with an antibody prepared from a peptide (S^41[…]^52) (SEQ ID NO:9) from human PAR4EC. Recombinant PAR4EC was linked to microtiter plate cuvette wells. Goat polyclonal antibody to human PAR1, PAR3, or PAR4 was incubated with the coated microtiter plate cuvette wells and antibody binding was detected. Only antibody to PAR4 detected rPAR4EC linked to the microtiter plate wells. […]"}, "coronary thrombosis": {"system": "coronary thrombosis", "details": "canine electrolytic injury model; similar to aspirin treatment; cited from earlier work"}, "[7]": {"system": "lipopolysaccharide-treated rats", "details": "infusion; cited from earlier work"}, "[8]": {"system": "platelet activation and deposition", "details": "ex vivo balloon injury; similar to aspirin; cited from earlier work"}}, "note": "Read-outs that look alike come from different tables or passages of the source. Ends that are not written are not given here."}
{"substance": "β-Ala-Lys-2Lys-4(Arg-Pro-Pro-Gly-Phe) (RPPGF; also: four copies on beta-Ala-Lys-2Lys-4 branched core) [MAP4-RPPGF, four-branched peptide of RPPGF on a β-alanine-lysine core]", "values": [{"measurement": "blocking of RPPGF-biotin binding to rPAR1EC by peptides", "setting": "[1]", "result": "blocked"}, {"measurement": "concentration that blocks thrombocytin cleavage of rPAR1EC", "setting": "[2]", "result": "0.2 to 0.5", "unit": "mM"}, {"measurement": "effect on α-thrombin cleavage of rPAR1EC", "setting": "[3]; 1 nM α-thrombin, 15 min, 37° C.", "result": "prevents these enzymes from cleaving rPAR1EC"}, {"measurement": "Ki", "setting": "thrombin", "result": 1750, "unit": "µM"}, {"measurement": "effect on cyclic flow variations", "setting": "cyclic flow variations", "result": "prevents cyclic flow variations"}, {"measurement": "time to thrombosis of the mouse carotid artery", "setting": "mouse carotid artery", "result": "delays the time to thrombosis"}, {"measurement": "mouse platelet aggregation", "setting": "mouse platelets", "result": "inhibits mouse platelet aggregation"}]}
{"substance": "rPPGF (RPPGF; not fully specified (residue 1); printed as rPPGF) [Arg-Pro-Pro-Gly-Phe, peptide of the RPPGF analog library]", "values": [{"measurement": "Ca^2^+ % Inhibition At 0.1 mM Peptide", "setting": "[4]", "result": "No Effect"}, {"measurement": "blocking of RPPGF-biotin binding to rPAR1EC by peptides", "setting": "[1]", "result": "blocked"}, {"measurement": "effect on α-thrombin cleavage of rPAR1EC", "setting": "[3]", "result": "prevents these enzymes from cleaving rPAR1EC"}, {"measurement": "blocking of biotinylated-SILPAPRGYPGQ binding to RPPGC", "setting": "[5]", "result": "blocked"}, {"measurement": "blocking of RPPGF-biotin binding to rPAR4EC", "setting": "[6]", "result": "block"}, {"measurement": "effect on coronary thrombosis", "setting": "coronary thrombosis", "result": "prevents coronary thrombosis"}, {"measurement": "time to death", "setting": "[7]", "result": "delays the time to death"}, {"measurement": "platelet activation and deposition", "setting": "[8]", "result": "reduced platelet activation and deposition"}]}
